Biological target: recombinant human PKA catalytic subunit Cα2 (human) (UniProt P17612)
Assay: SPR; C subunits amine-coupled to CM5 chip (about 300 RU), R subunits injected at 30 μl/min; 25°C; 20 mM MOPS pH 7, 150 mM NaCl, 1 mM ATP, 5 mM MgCl2, 50 μM EDTA, 0.005% P20; Langmuir 1:1 model; Biacore 2000 or 3000

Substance: recombinant human PKA regulatory subunit RIIβ (from UniProt P31323 1-418) (natural protein; other documents disagree on this pair)
- Kd: 0.9 nM
- kon: 900000 M⁻¹ s⁻¹

From PMC3163529
